Results on two molecules are retold here after patent US20020151463A1 (UT BATTELLE, published 2002).

The target in test [1] is T1, murine MSH receptor (mouse, UniProt Q01727 1-315). Kind of test: cell-based or functional assay.
The target of test [2] is T1, murine MSH receptor. Kind of test: competition binding against 125I-ACTH1-39 on Cloudman M-3 melanoma cells, single-site model.
Description: To investigate this further, the ability of the protein to compete with another melanocortin peptide for binding to the mouse MSH-R was examined. […] Competition binding studies were performed with ¹²⁵I-labelled ACTH₁₋₃₉ and the M-3 subclone of the Cloudman murine melanoma cell line.
Test [3] addresses human MSH receptor (human, UniProt Q01726 1-317). Kind of test: cell-based or functional assay.

T1 sequence (Q01727 whole entry): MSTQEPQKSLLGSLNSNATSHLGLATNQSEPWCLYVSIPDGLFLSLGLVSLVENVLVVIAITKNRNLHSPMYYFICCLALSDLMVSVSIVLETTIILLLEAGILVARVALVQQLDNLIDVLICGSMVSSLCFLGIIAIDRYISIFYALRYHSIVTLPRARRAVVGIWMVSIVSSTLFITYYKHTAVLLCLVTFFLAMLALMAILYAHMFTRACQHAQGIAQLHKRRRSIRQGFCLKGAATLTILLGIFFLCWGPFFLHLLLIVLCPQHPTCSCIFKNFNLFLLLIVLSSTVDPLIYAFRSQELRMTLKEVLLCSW
Chain of human MSH receptor (Q01726 whole entry): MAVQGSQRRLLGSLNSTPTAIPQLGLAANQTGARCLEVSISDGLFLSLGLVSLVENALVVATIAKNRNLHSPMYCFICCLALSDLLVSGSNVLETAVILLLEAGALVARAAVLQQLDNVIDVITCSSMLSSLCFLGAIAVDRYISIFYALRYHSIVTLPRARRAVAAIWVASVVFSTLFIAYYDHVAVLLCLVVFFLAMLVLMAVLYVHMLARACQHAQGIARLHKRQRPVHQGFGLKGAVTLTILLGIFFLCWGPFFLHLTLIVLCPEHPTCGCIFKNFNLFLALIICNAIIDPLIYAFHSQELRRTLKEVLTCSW

B1: recombinant murine agouti protein (ligand)
chain: HLALEETLGDDRSLRSNSSMNSLDFSSVSIVALNKKSKKISRKEAEKRKRSSKKKASMKKVARPPPPSPCVATRDSCKPPAPACCDPCASCQCRFFGSACTCRVLNPNC
notes: Full-length mouse agouti cDNA expressed by baculovirus in T. ni cells; also called mouse agouti; agouti polypeptide
Take B1: the “apparent Ki (antagonism of α-MSH-stimulated adenylyl cyclase, four independent studies)” value in test [1] was determined as 320 pM. For the same molecule, in test [2], the IC50 (in general, the concentration that inhibits the measured activity by half) was determined as 1.2 ng/mL and the inhibition constant Ki (commonly a measure of affinity in units of concentration, obtained from inhibition or displacement) was determined as 660 pM.

B2: recombinant human agouti protein (ligand)
chain: HLPPEEKLRDDRSLRSNSSVNLLDVPSVSIVALNKKSKQIGRKAAEKKRSSKKEASMKKVVRPRTPLSAPCVATRNSCKPPAPACCDPCASCQCRFFRSACSCRVLSLNC
In the case of B2, the “EC50 of the [Ca^2+]i dose response in the HEK-293 MC1R line” value in test [3] is roughly 18000 pM.
